Results published in patent US20120231024A1 (UNIVERSIT TSKLINIKUM FREIBURG, published 2012).

Target: T1, prostate specific membrane antigen (PSMA), native, on the cell surface (human, UniProt Q04609 1-750)
T1 construct: whole, on cells; also called cell-surface PSMA; native PSMA
Test: flow cytometry saturation curve on LNCaP cells; concentration at 50% saturation of PSMA sites
Method: The binding properties of the isolated monoclonal antibodies or an antigen binding portion thereof to the native PSMA were compared by treating LNCAP cells with increasing concentrations of the first step anti-PSMA Ab followed by incubation with the second step PE-labeled antibody. From the resulting saturation curves the antibody concentration reaching 50% saturation of PSMA sites can be read.

T1 sequence (Q04609 whole entry): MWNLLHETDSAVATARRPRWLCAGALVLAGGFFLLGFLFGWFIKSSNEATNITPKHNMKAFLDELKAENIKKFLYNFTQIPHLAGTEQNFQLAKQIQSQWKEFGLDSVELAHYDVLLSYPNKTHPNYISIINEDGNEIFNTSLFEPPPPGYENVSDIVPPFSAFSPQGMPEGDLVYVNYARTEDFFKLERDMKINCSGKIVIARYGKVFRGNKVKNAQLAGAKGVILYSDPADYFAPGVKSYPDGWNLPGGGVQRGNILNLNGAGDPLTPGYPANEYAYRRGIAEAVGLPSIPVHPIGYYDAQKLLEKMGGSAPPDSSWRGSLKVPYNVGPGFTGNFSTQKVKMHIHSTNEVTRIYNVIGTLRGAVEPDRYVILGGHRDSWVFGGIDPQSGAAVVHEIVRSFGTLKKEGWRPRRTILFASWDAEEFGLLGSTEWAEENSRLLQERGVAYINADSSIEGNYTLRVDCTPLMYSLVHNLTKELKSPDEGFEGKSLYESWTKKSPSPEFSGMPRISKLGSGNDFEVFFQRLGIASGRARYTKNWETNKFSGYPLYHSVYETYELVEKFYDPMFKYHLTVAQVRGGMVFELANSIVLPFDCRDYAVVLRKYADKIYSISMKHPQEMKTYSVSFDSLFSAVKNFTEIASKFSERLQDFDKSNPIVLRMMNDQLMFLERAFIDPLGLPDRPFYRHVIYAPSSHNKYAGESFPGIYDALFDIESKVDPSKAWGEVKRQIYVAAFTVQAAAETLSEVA

B1: scFv A5 (scFv)
scFv: MADVKLVESGGGLVKPGESLKLSCIASGFTFSDYYMYWVRQTPEKRLEWVAIISDGGYYTYYSDIIKGRFTISRDNAKNNLYLQMSSLKSEDTAMYYCTRGFPLLRHGAMDYWGLGTSVTVSSTKTTPKLEEGEFSEARVDIQMTQSPKFMSTSVGDRVSVTCKASQNVDTNVAWYQQKPGQSPKALIYSASYRYSDVPDRFTGSESGTDFTLTISNVQSEDLAEYFCQQYDSYPYTFGGGTKLEIKRADAAA
notes: also called scFv AS [sic]
- EC50: 60 nM
